The results in this text go back to US20090217392A1.

Assay [1] addresses human αvβ3 integrin on cells (human) (UniProt P06756). The assay is described as follows: flow cytometry on M21 cells; signal of the competitor FITC-labeled CNTO95 at 2 µg/mL; row antibody at 20 µg/mL. Further details: % Positive: reference not given here. On the technique in general: Flow cytometry measures light scatter and fluorescence of single cells or particles in a stream.

For assay [2] the target is unchanged. Description: flow cytometry on M21 cells; signal of the competitor FITC-labeled CNTO95 at 20 µg/mL; row antibody at 20 µg/mL.
In assay [3] the target is human αvβ5 integrin on cells (human) (UniProt P06756). The assay is described as follows: flow cytometry on M21 cells; signal of the competitor FITC-labeled CNTO95 at 2 µg/mL; row antibody at 20 µg/mL. Further details: % Positive: reference not given here.
Assay [4] shares this target. The assay is described as follows: flow cytometry on M21 cells; signal of the competitor FITC-labeled CNTO95 at 20 µg/mL; row antibody at 20 µg/mL.
Assay [5] deals with αvβ3 and αvβ5 integrins on cells that express both (M21, A375S2/A375S.2, HUVEC) (human) (UniProt P06756). Description: cell-based or functional assay.
For assay [6] the target is unchanged. The assay is described as follows: flow cytometry on M21 cells; FITC-goat anti-human Fc-labeled CNTO95 at 2 µg/mL, saline instead of competitor.
For assay [7] the target is unchanged. Description: flow cytometry on M21 cells; FITC-goat anti-human Fc-labeled CNTO95 at 20 µg/mL, saline instead of competitor.
Where [8] appears, read: scale: % of cell adhesion in the absence of antibody.

In assay [1], m7E3 IgG (antibody) yielded a % Positive of 132% and an MCF (median channel fluorescence) of 5.73. In assay [2], the % Positive is 103% and the MCF (median channel fluorescence) is 14.7.

Take LM609 (antibody): in assay [1], the % Positive is 110% and the MCF (median channel fluorescence) was 4.78. Further, in assay [2], the % Positive came out at 93% and the MCF (median channel fluorescence) stood at 13.3.

For P1F6 (antibody), in assay [3], the % Positive was found to be 112% and the MCF (median channel fluorescence) was 4.87. In assay [4], this substance showed a % Positive of 101% and an MCF (median channel fluorescence) of 14.5.

The substance CNTO 95 (antibody) showed a minimal concentration for complete inhibition of MDAMB435L2 cell adhesion to vitronectin in assay [5] of 1.5 µg/mL. Moreover, in assay [5] (setting [8]), the A375S.2 cell adhesion to fibrin, antibody 10 µg/ml came to 43.3; the A375S.2 cell adhesion to fibrinogen, antibody 10 µg/ml was 11.4; the A375S.2 cell adhesion to gelatin, antibody 10 µg/ml was determined as 23.2; the A375S.2 cell adhesion to vitronectin, antibody 10 µg/ml is 1.4. In assay [5] (setting [8]), the HUVEC adhesion to fibrin, antibody 10 µg/ml worked out at 45.1; the HUVEC adhesion to fibrinogen, antibody 10 µg/ml came out at 34.5; the HUVEC adhesion to gelatin, antibody 10 µg/ml was 54.8; the HUVEC adhesion to vitronectin, antibody 10 µg/ml stood at 3.3. For the same substance, the MCF (median channel fluorescence) in assay [6] was found to be 4.33. This substance returned an MCF (median channel fluorescence) in assay [7] of 14.3.
